From patent US8084228B2, “Nogo-B receptor antagonists” (Yale University, priority 2006, dated 2011)

T1: NgBR (Homo sapiens, UniProt Q96E22)
T1 sequence (Q96E22 1-293): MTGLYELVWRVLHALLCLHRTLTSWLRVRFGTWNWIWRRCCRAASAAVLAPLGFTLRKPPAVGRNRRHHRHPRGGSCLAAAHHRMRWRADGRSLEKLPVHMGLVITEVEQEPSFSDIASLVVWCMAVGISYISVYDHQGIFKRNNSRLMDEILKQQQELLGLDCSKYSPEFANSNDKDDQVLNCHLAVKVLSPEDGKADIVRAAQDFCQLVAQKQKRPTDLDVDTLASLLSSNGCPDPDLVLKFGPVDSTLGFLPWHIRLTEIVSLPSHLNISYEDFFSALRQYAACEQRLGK

T2: Nogo receptor (Homo sapiens, UniProt Q9BZR6)
T2 construct: expressed in transfected cells; host or cells: COS-7
T2 sequence (Q9BZR6 27-447): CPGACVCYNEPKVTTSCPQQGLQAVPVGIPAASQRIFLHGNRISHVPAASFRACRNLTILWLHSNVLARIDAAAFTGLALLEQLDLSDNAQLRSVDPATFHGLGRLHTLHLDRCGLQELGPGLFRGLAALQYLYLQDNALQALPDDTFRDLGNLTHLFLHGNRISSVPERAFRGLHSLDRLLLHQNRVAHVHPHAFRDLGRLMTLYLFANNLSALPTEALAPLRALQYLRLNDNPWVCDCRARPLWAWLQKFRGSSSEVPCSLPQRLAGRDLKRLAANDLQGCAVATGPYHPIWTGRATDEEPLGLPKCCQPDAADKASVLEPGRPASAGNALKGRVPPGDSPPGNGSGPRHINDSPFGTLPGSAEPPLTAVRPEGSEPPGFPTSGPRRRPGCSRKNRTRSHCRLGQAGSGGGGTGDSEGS


What was measured:
Endothelial cells = assay: Am-Nogo-B-induced migration of endothelial cells, inhibition by NgBR ectodomain peptides or fusion protein; assay type: cell-based; settings: peptide 200 nM, Am-Nogo-B 100 nM
Method: (§1) Cell migration was examined in modified Boyden chambers using 10 nM each of purified recombinant AP, AP fusion of Nogo-66 (AP-Nogo-66) or Am-Nogo-B. The transwell inserts (Costar transwell inserts; Corning) were coated with a solution of 0.1% gelatin (Sigma) in PBS at 4° C. overnight and then air-dried. VEGF at 50 ng/mL (1.1 nM) or recombinant Am-Nogo-B at various concentrations dissolved in medium 199 containing 0.1% BSA was added in the bottom chamber of the Boyden apparatus. HUVEC (200,000 cells) suspended in a 100 μL aliquot of medium 199 containing 0.1% BSA was added to the upper chamber. After 5 hours incubation, cells on both sides of the membrane were fixed and stained with a Diff-Quik staining kit (Baxter Healthcare, Miami, Fla.). The average number of cells from five randomly chosen high-power (×400) fields on the lower side of the membrane was counted.
Endothelial cells were incubated with vehicle (control) of one of peptides P1-P4 (200 nM each) in the presence of Am-Nogo-B (100 nM).
Similarly, treatment of endothelial cells with mFc-ecto, but not mFc, blocked Am-Nogo-B-induced cell migration (FIG. 35).

NgBR mRNA = NgBR mRNA by quantitative PCR after siRNA transfection of HUVEC; assay type: cell-based, human; settings: 72 hours after transfection, normalized to 18S
Method: (§2) NgBR siRNA oligonucleotides (SEQ ID NOS:2-5) with 3′ dTdT overhangs were synthesized by Qiagen. Control siRNA in experiments refers to a nonsilencing (NS) siRNA (NS forward: UUCUCCGAACGUGUCACGU, SEQ ID NO:7; NS reverse: ACGUGACACGUUCGGAGAA, SEQ ID NO:8) designed and synthesized by Qiagen. HUVEC and CHO stable cell lines were transfected with siRNA by using Oligofectamine. Quantification of NgBR mRNA and protein, ligand binding assay, and migration assay were performed at 72 hours after transfection.
Total RNA from cells was isolated by using the RNeasy kit (Qiagen). Reverse transcription was then performed by using 100 ng of RNA and the Superscript First-Strand Synthesis System kit (Invitrogen). Real-time PCR analysis was done with the iCycler iQ detection system using the iQ SYBR green Supermix kit (Bio-Rad). The NgBR mRNA level was normalized by housekeeping gene 18S. The following primers were used for NgBR: forward, 5′-[…]-3′ (SEQ ID NO:9) and reverse, 5′-[…]-3′ (SEQ ID NO:10). The following primers were used for 18S: forward, 5′-[…]-3′ (SEQ ID NO:11) and reverse, 5′-[…]-3′ (SEQ ID NO:12).

HUVEC [1] = assay: AP-Am-Nogo-B binding to HUVEC after siRNA transfection; assay type: cell-based, human; settings: 72 hours after siRNA transfection
Method: (§3) To detect AP-Am-Nogo-B binding, cultures were washed with Hanks' balanced salt solution (HBSS) containing 20 mM HEPES, pH 7.5, and 1 mg/mL BSA (HBH). The plates were then incubated with AP-Am-Nogo-B in DMEM containing 20 mM Hepes, pH 7.5, and 1 mg/mL BSA for 2 hours at 4° C. The bound AP-Am-Nogo-B was detected by using the Blue Substrate kit (Vector Laboratories). The blue staining was examined by using the ODYSSEY Infrared Imaging System (Li-Cor, Lincoln, Nebr.) and confirmed by microscopy. Alternatively, the bound AP-Am-Nogo-B was extracted with Triton X-100, and AP activity was colorimetrically quantified by using p-nitrophenyl phosphate (Sigma) as substrate after heat inactivation of endogenous AP. Non-specific binding was determined by measuring binding in the presence of a 100-fold molar excess of recombinant Am-Nogo-B lacking the AP fusion protein. Specific binding was determined by subtracting the non-specific binding from total binding. For determination of apparent Kd, the binding of AP-Am-Nogo-B was measured in triplicate as described above and the Kd value was quantified by using the Scatchard plot program of GraphPad PRISM (one-site binding, linear regression) using the ratio of bound ligand to free ligand as the y axis and bound ligand (pM) as the x axis.
as §2

NgBR [2] = target: T1, NgBR; assay: AP fusion protein binding to CHO cells expressing NgBR; set-up: an isolated cDNA encoding NgBR is 2,636 base pairs encoding an open reading frame of 293 amino acids; expressed in transfected cells; settings: for surface binding of AP fusion domains to NgBR-expressing cells: CHO cells expressing NgBR (FIGS. 11, 14)
Method: as §3
A recombinant AP-Am-Nogo-B fusion protein was used to screen a cDNA expression library from human heart (500,000 independent clones) transfected into COS or CHO cells using Lipofectamine 2000 (Invitrogen). COS-7 cells were cultured in high-glucose DMEM with 10% FBS. CHO cells were cultured in MEM-α with 5% FBS.

HUVEC [3] = assay: Binding of AP fusion proteins to the surface of HUVEC; set-up: species or system human; settings: HUVEC (FIGS. 12, 15)
Method: as §3

Nogo receptor = target: T2, Nogo receptor; assay: AP fusion protein binding to COS cells transfected with cDNA encoding the Nogo receptor; settings: COS cells (FIG. 6)
Method: as §3
(§4) For expression cloning of Am-Nogo-B receptor, pools of 5,000 arrayed clones from a human heart cDNA library (OriGene Technologies, Rockville, Md.) were transfected into COS-7 cells, and AP-Am-Nogo-B binding was assessed by using AP versus AP-Am-Nogo-B binding and detection of the AP product by near-infrared cell imaging (Li-Cor, Lincoln, Nebr.) or AP activity assays.

NgBR [4] = target: T1, NgBR; assay: AP fusion protein binding to COS cells transfected with the isolated NgBR cDNA; set-up: an isolated cDNA encoding NgBR is 2,636 base pairs encoding an open reading frame of 293 amino acids; expressed in transfected cells; host or cells: COS-7 (A4); settings: COS cells (FIG. 6)
Method: as §3, §4
Single NgBR cDNA clones were isolated by sib selection and sequenced. […] The HA-tagged NgBR was immunoisolated with anti-HA immunobeads (Roche, Indianapolis, Ind.) and associated proteins analyzed by Western blotting. For the Western blots, expression of NgBR-HA was detected by using anti-HA (Roche) and NgBR (Imgenex), respectively, and beta-actin (Sigma) or Hsp90 (BD Biosciences-Pharmingen) was used to control for loading.

HUVEC [5] = assay: HUVEC migration in modified Boyden chambers; assay type: cell-based, human; settings: 10 nM purified recombinant protein, 5 hours
Method: The migratory response of human umbilical vein endothelial cells (HUVEC) in response to a gradient of recombinant, purified alkaline phosphatase (AP) fusion protein expressing Am-Nogo-B or a recombinant purified Am-Nogo-B was examined. HUVEC were cultured in M199 with 20% FBS and endothelial cell growth supplement (ECGS).
as §1

| surface binding of AP fusion domains to NgBR-expressing cells (NgBR [2]) | surface binding of AP fusion domains to HUVEC (HUVEC [3]) | Molecule | Am-Nogo-B-induced migration of endothelial cells in presence of peptide (Endothelial cells) | also measured |
| --- | --- | --- | --- | --- |
| – | – | P4: NgBR ectodomain peptide ADGRSLEKLPVHMGLVITEVEQEPSFSD (SEQ ID NO: 16) (listed as Homo sapiens) | to a lesser extent | – |
| – | – | PP2: truncated version of P2, TLRKPPAVGRNRRHHRHPRG (SEQ ID NO: 18) (listed as Homo sapiens) | nearly identical to that of P2 | – |
| – | – | scrambled version of P2: scrambled P2 control PGRHLKPSRFNARLHGPCRVLRAHGPLTRG (SEQ ID NO: 17) (scrambled version of SEQ ID NO 14) [reference compound] | did not block | – |
| – | – | nonsilencing RNA: nonsilencing (NS) control siRNA by Qiagen; forward UUCUCCGAACGUGUCACGU (SEQ ID NO:7) (antisense ACGUGACACGUUCGGAGAA; listed as RNA, chemistry not given here) [reference compound] | – | level of NgBR mRNA (NgBR mRNA): not; binding of AP-Am-Nogo-B to HUVEC (HUVEC [1]): not |
| – | – | P2: NgBR ectodomain peptide LAPLGFTLRKPPAVGRNRRHHRHPRGGSCL (SEQ ID NO: 14) (listed as Homo sapiens) | effectively reduced | – |
| did not bind | did not bind | AP-Nogo-B (amino acids 1-180): AP fusion with amino acids 1-180 of Nogo-B (protein, left off: large carriers, AP fusion with amino acids 1-180 of Nogo-B) MEDLDQSPLVSSSDSPPRPQPAFKYQFVREPEDEEEEEEEEEEDEDEDLEELEVLERKPAAGLSAAPVPTAPAAGAPLMDFGNDFVPPAPRGPLPAAPPVAPERQPSWDPSPVSSTVPAPSPLSAAAVSPSKLPEDDEPPARPPPPPPASVSPQAEPVWTPPAPAPAAPPSTPAAPKRRG | – | – |
| did not bind | did not bind | AP-Nogo-66: AP fusion of Nogo-66, a 66 amino acid residue loop in the RHD (protein, left off: large carriers, AP fusion of Nogo-66, a 66 amino acid residue loop in the RHD) RIYKGVIQAIQKSDEGHPFRAYLESEVAISEELVQKYSNSALGHVNCTIKELRRLFLVDDLVDSLK | – | binding to CHO cells stably expressing NgBR (NgBR [2]; increasing concentrations, 2 hours at 4° C.): not; binding to COS cells transfected with Nogo receptor cDNA (Nogo receptor): selectively bind; binding to COS cells transfected with the isolated NgBR cDNA (NgBR [4]): not; HUVEC migration (HUVEC [5]): does not promote |
| did not bind | did not bind | AP-Nogo-A (59-172): AP fusion with biologically active domain 59-172 of Nogo-A (protein, left off: large carriers) PAAGLSAAPVPTAPAAGAPLMDFGNDFVPPAPRGPLPAAPPVAPERQPSWDPSPVSSTVPAPSPLSAAAVSPSKLPEDDEPPARPPPPPPASVSPQAEPVWTPPAPAPAAPPST | – | – |
| did | did | Ap-Nogo-B (61-200): AP fusion with amino acids 61-200 of Nogo-B (protein, left off: large carriers, AP fusion with amino acids 61-200 of Nogo-B) AGLSAAPVPTAPAAGAPLMDFGNDFVPPAPRGPLPAAPPVAPERQPSWDPSPVSSTVPAPSPLSAAAVSPSKLPEDDEPPARPPPPPPASVSPQAEPVWTPPAPAPAAPPSTPAAPKRRGSSGSVVVDLLYWRDIKKTGV | – | – |
